± gives the uncertainty stated by the source.
Assay: protein stability index of a GFP-peptide fusion (yeast GPS) (PSI 1-4); higher = more stable; sorted into four equal gates, so the index is relative within each strain
How it was run: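 Tiled 17-residue peptides from yeast proteins were fused downstream of GFP on a plasmid that also expresses Cherry, and the pooled library was carried in yeast. Mid-log cultures grown in leucine-free medium were sorted into four equal gates by GFP/Cherry fluorescence ratio. Plasmids from each gate were PCR-amplified and Illumina-sequenced, and reads were assigned to strains by barcodes. Each peptide's protein stability index is the sum, over gates, of the gate's read frequency multiplied by its gate number.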

Row | Sequence | protein stability index (doa10∆) | protein stability index (pdr5∆) | protein stability index (ubr1∆) | protein stability index (san1∆)
1 | SPAVKKLLQLAGVEDVY [RPS2] | 1.58 ± 0.062 | 1.76 ± 0.14 | 2.05 ± 0.2 | –
2 | EPHAVSLAWSADGQTLF [ASC1] | 2.85 ± 0.12 | 3.06 ± 0.14 | 2.79 ± 0.26 | –
3 | SVFGFRTQFGGGKSVGF [RPS24A] | 2.56 ± 0.13 | 2.23 ± 0.076 | 2.77 ± 0.088 | 3.31 ± 0.076
4 | GGLKNGVLYQGNIQISE [DIS3] | 3.25 ± 0.098 | 3.27 ± 0.085 | 3.17 ± 0.065 | 2.9 ± 0.072
5 | DNSESHPFIPLLKEKPN [RRP6] | 1.93 ± 0.066 | 1.93 ± 0.059 | 1.99 ± 0.051 | 1.99 ± 0.071
6 | IPHDLNFLQESYEVEHV [TAF14] | 3.16 ± 0.096 | 3.33 ± 0.087 | 3.12 ± 0.056 | 2.85 ± 0.07
7 | TRSLKYGKLRNGMFCQV [RRP4] | 1.42 ± 0.081 | 1.11 ± 0.1 | 1.07 ± 0.12 | 1.09 ± 0.13
8 | PGTITHGMFSSASVRAL [FAS1] | 2.53 ± 0.063 | 2.54 ± 0.064 | 2.52 ± 0.037 | 2.53 ± 0.053
9 | APGKVELAINLIRFDES [SMC2] | 3.12 ± 0.16 | 3.11 ± 0.11 | 2.83 ± 0.08 | 3.52 ± 0.12
10 | KTVQSMTQRAIQSAESI [SWI3] | 2.5 ± 0.11 | 1.8 ± 0.079 | 1.82 ± 0.12 | 2.53 ± 0.13
11 | GEMVGVLAAQSIGEPAT [RPO21] | 2.36 ± 0.087 | 2.55 ± 0.073 | 2.58 ± 0.088 | 2.38 ± 0.066
12 | FNSFRRFKSQFLYVLIP [QCR8] | 1.63 ± 0.1 | 1.69 ± 0.069 | 1.4 ± 0.054 | 1.56 ± 0.12
13 | NNYKDLLAVAIAASYHY [RPP0] | 1.4 ± 0.065 | 1.95 ± 0.12 | 1.64 ± 0.068 | 1.39 ± 0.15
14 | FQDTLYKKIPLLGPTLE [QCR10] | 2.84 ± 0.13 | 2.94 ± 0.11 | 2.95 ± 0.1 | 2.47 ± 0.18
15 | FLTVSKLWAEIIVKILY [GRR1] | 1.55 ± 0.046 | 1.97 ± 0.058 | 1.37 ± 0.048 | 1.53 ± 0.087
16 | SDGEDGHIPWHILAVKK [SSN2] | 3.02 ± 0.11 | 2.97 ± 0.15 | 3.16 ± 0.15 | 3.23 ± 0.1
17 | VDDDQDYVVAPGVNREI [GRR1] | 3.17 ± 0.13 | 3.13 ± 0.15 | 3.29 ± 0.2 | 3.31 ± 0.2
18 | VKAAINFSNVTDLTNNS [YIL149C/MLP2] | 2.49 ± 0.044 | 3.11 ± 0.049 | 2.62 ± 0.04 | 3.35 ± 0.04
19 | NVVNYLSINKNFINQED [RPC17] | 1.39 ± 0.071 | 1.83 ± 0.061 | 1.61 ± 0.045 | 1.55 ± 0.079
20 | PRFNRENKVSPADAAKK [RPS26A] | 3.45 ± 0.18 | 2.73 ± 0.17 | 2.89 ± 0.12 | 2.98 ± 0.075
21 | SWYLNTFDGIRMSSEEV [GRR1] | 2.73 ± 0.061 | 2.1 ± 0.059 | 2.27 ± 0.043 | 2.13 ± 0.066
22 | VTNSPLFQTIEKLINNS [ECM29] | 2.73 ± 0.054 | 2.85 ± 0.058 | 2.92 ± 0.066 | 2.76 ± 0.085
23 | VLVVRGSKKGQEGKISS [RPL26A] | 3.54 ± 0.085 | 3.19 ± 0.099 | 3.44 ± 0.084 | 3.06 ± 0.068
24 | CVKLTVRSLLEVVQTGA [PRE6] | 2.44 ± 0.3 | – | 2.27 ± 0.29 | –
25 | VKSVNDPSQNRLTGSLL [RPC37] | 3.16 ± 0.089 | 3.48 ± 0.11 | 3.08 ± 0.048 | 3.04 ± 0.11
26 | DVKISNDFFDNGDNLYG [RPN4] | 2.39 ± 0.086 | 2.93 ± 0.063 | 1.69 ± 0.057 | 2.67 ± 0.12

Row | Sequence | protein stability index (doa10∆) | protein stability index (pdr5∆) | protein stability index (ubr1∆) | protein stability index (san1∆)
27 | AIPNPEDVVAISSRTFG [RPS0A] | 3.22 ± 0.1 | 2.94 ± 0.05 | 2.94 ± 0.043 | 2.91 ± 0.077
28 | ILTREVQNSTLAQLTSK [RPS1B] | 2.14 ± 0.069 | 2.71 ± 0.055 | 2.45 ± 0.04 | 2.48 ± 0.075
29 | HDYWNKIMQSISNKDVI [SRB4] | 1.85 ± 0.27 | 1.62 ± 0.23 | – | 1.33 ± 0.19
30 | QESLLSRTFDKYSKLVD [SRP72] | 2.83 ± 0.059 | 2.9 ± 0.068 | 2.7 ± 0.04 | 2.99 ± 0.055
31 | TGLLIARRTLQKLGLDE [RPL5] | 3.2 ± 0.13 | 3.05 ± 0.17 | 3.18 ± 0.16 | 3.39 ± 0.094
32 | KVKKPLKYLSVEEVIKL [PRE7] | 2.54 ± 0.084 | 2.63 ± 0.054 | 2.23 ± 0.067 | 2.75 ± 0.083
33 | EDEEEFSIFNYFKMFPA [RPC34] | 3.27 ± 0.19 | 2.2 ± 0.1 | 2.46 ± 0.2 | –
34 | TTVFFSRQKSGLFDSFT [YML031W/NDC1] | 1.49 ± 0.042 | 1.45 ± 0.055 | 1.55 ± 0.048 | 1.54 ± 0.11
35 | ERPPYILNSYGVLKPDI [SIR2] | 2.83 ± 0.078 | 3.12 ± 0.093 | 3.15 ± 0.061 | 3.15 ± 0.053
36 | SASHILIPASDLSWSKQ [PRP8] | 1.48 ± 0.069 | 1.93 ± 0.058 | 1.95 ± 0.038 | 1.53 ± 0.082
37 | YLIKLLGFEVKDQALIG [SIR2] | 1.92 ± 0.061 | 2.08 ± 0.06 | 2.73 ± 0.087 | 2.1 ± 0.061
38 | EGKVTKLRRECSNPTCG [RPS31] | 3.31 ± 0.11 | 3.16 ± 0.089 | 3.1 ± 0.083 | 3.18 ± 0.078
39 | RELARIKKYASVVRVLV [RPL3] | 1.32 ± 0.09 | 1.17 ± 0.12 | 1.2 ± 0.11 | 1.13 ± 0.18
40 | LMYATDWQMMTSPVTGA [CSL4] | 2.85 ± 0.15 | 3.21 ± 0.2 | 2.79 ± 0.28 | –
41 | QTSRGLFGNNNTNNINN [YGL172W/NUP49] | 3.1 ± 0.18 | 3.04 ± 0.13 | 3.14 ± 0.16 | 3.13 ± 0.16
42 | HGMSVDPRHIQLLGDVM [RPO31] | 2.73 ± 0.057 | 2.82 ± 0.062 | 2.98 ± 0.04 | 2.85 ± 0.049
43 | MDHEEARRKHVSGKILG [RPS22A] | 2.83 ± 0.28 | 2.65 ± 0.24 | 3.02 ± 0.12 | 2.87 ± 0.24
44 | ENLPGLSISVAAEPMDS [SNU114] | 2.7 ± 0.062 | 2.91 ± 0.079 | 3.17 ± 0.095 | 2.83 ± 0.074
45 | AEKKIPLVIRRYLPDGS [RPO26] | 2.79 ± 0.09 | 2.54 ± 0.12 | – | 3.45 ± 0.066
46 | DQLIISSSANKLLQLFL [YML103C/NUP188] | 1.91 ± 0.063 | 2.17 ± 0.066 | 2.54 ± 0.055 | 1.89 ± 0.086
47 | GSNQKPKYEPPVQSKFG [RPT2] | 2.94 ± 0.13 | 3 ± 0.15 | 3.09 ± 0.099 | 2.34 ± 0.22
48 | QFEIPISDDDDSALRYS [POP4] | 2.98 ± 0.071 | 2.75 ± 0.096 | 3.16 ± 0.038 | 2.54 ± 0.049
49 | ELGTAVGKLFRVGVVSI [RPL30] | 1.31 ± 0.13 | 1.17 ± 0.1 | 1.29 ± 0.095 | 1.27 ± 0.23
50 | DDFTDAIQFVKENELLF [YCS4] | 2.1 ± 0.082 | 2.04 ± 0.061 | 1.92 ± 0.07 | 2.58 ± 0.16
51 | NYPQDEINAVFNELCDP [POP1] | 2.84 ± 0.059 | 3.04 ± 0.051 | 3.07 ± 0.056 | 2.9 ± 0.057
52 | FKELCYENKDNLTAGII [PRE3] | 2.95 ± 0.044 | 2.95 ± 0.042 | 2.83 ± 0.039 | 2.93 ± 0.034
